Drawing on US20150344548A1 (XBIOTECH, published 2015), this text covers Kd for one molecule.

The experiment addresses T1, commercial wildtype SpA (Staphylococcus aureus protein A) (Staphylococcus aureus, UniProt A0A0H3K686 37-477).
T1 construct: Bought wildtype SpA; also called SpA-coated beads; antigen
Description: Bio-Layer Interferometry (ForteBio Octet Red 96), 20 nM antigen.

T1 sequence (A0A0H3K686 37-477 limits assumed): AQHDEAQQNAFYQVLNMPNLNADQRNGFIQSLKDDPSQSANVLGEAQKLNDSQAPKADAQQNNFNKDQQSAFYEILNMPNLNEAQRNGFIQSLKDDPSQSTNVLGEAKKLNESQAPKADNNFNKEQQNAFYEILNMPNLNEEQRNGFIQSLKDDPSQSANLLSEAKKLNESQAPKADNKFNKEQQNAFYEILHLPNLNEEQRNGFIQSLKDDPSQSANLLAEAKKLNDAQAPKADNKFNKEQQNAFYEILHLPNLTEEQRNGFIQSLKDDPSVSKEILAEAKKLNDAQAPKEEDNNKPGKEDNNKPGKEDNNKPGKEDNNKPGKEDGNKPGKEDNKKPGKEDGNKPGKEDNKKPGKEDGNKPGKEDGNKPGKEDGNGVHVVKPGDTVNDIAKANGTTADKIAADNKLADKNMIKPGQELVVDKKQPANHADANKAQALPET

B1: PA7.2-G3 Ab (antibody)
heavy: EVQLVESRGGLVQPGGSLRLSCAASGFTFSNYAMSWVRQAPGKGLEWVSTISGSDGGTYYADSVKGRFTISRDNSGNTVYLQMNSLREDDTAVYYCARVGLSAPVTFFDFWGQGTLVTVSSASTKGPSVFPLAPCSRSTSGGTAALGCLVKDYFPEPVTVSWNSGALTSGVHTFPAVLQSSGLYSLSSVVTVPSSSLGTQTYTCNVNHKPSNTKVDKRVELKTPLGDTTHTCPRCPEPKSCDTPPPCPRCPEPKSCDTPPPCPRCPEPKSCDTPPPCPRCPAPELLGGPSVFLFPPKPKDTLMISRTPEVTCVVVDVSHEDPEVQFKWYVDGVEVHNAKTKPREEQYNSTFRVVSVLTVLHQDWLNGKEYKCKVSNKALPAPIEKTISKTKGQPREPQVYTLPPSREEMTKNQVSLTCLVKGFYPSDIAVEWESSGQPENNYNTTPPMLDSDGSFFLYSKLTVDKSRWQQGNIFSCSVMHEALHNRFTQKSLSLSPGK
light: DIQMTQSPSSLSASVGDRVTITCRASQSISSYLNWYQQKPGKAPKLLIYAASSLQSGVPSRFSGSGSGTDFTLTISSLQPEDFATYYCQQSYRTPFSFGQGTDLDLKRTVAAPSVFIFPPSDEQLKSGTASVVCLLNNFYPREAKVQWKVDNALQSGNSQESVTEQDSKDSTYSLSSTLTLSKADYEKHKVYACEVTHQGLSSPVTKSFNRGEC
notes: Human IgG3; copies: 2 + 2
Broadly, the Kd is a measure of binding affinity in units of concentration. A high value points to weaker binding. In turn, B1 registered a dissociation constant (Kd) of under 1 pM.
